# T1: murine CD28-Fc (mouse, UniProt P31041 20-150)
# T1 sequence: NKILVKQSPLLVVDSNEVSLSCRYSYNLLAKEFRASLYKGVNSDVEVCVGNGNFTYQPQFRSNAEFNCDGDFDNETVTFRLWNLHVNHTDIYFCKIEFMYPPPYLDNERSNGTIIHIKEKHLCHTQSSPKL
# B1: CD28Apt7 (monomer) (structured_RNA)
# RNA: GGGAGAGAGGAAGAGGGAUGGGGAUUAGACCAUAGGCUCCCAACCCCCAUAACCCAGAGGUCGAUAGUACUGGAUCCCCCC
# modifications: 2'-fluoropyrimidine (2'-F C and U)
# Tests used:
# murine CD28-Fc = target: T1, murine CD28-Fc; test: filter binding
# human CD28-Fc = human CD28-Fc (human, UniProt P10747 19-152); test: filter binding?
# Sequence of human CD28-Fc (P10747 19-152): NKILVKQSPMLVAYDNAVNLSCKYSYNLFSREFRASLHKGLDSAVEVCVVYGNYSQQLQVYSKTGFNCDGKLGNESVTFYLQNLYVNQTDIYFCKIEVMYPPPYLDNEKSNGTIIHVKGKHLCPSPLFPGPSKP
binder,measurement,setting,value
B1,Kd,murine CD28-Fc,60 nM
same,binding result,human CD28-Fc,no binding

# Source: PMC3696906
